# Measurements reported in publication PMC3102090, “Interaction between Amyloid Beta Peptide and an Aggregation Blocker Peptide Mimicking Islet Amyloid Polypeptide” (PLoS ONE, 2011).
# Square brackets hold non-standard residues; d marks the D form. Ends that are not written are not given here. fluorescein = fluorescein (N-terminal label); NMeI = CC[C@H](C)[C@H](NC)C(=O)O; Sar = CNCC(=O)O
# Columns and labels:
# [1] = Side chain 1H-15N HSQC of histidines of Aβ42; format: physicochemical; details: 30 µM Aβ42, no IAPP-GI, pH 7.3, 278 K
# Procedure: ^1H-^15N HSQC spectra of the side chains of histidines (H6, H13 and H14) were acquired on a Bruker AMX 600 MHz spectrometer equipped with a triple-resonance cryogenic probe. […] A 30 µM sample of Aβ42 was also measured. The INEPT transfer delay was selected as 27.8 ms, to obtain the coherence transfer from the ε1H and δ2H protons to the ε2N and δ1N through the ^2J coupling constant (Figure 1B). The carrier and SWH values were 5.00 ppm and 6010 Hz in the direct dimension, and 185.31 ppm and 9728 Hz in the indirect dimension. The experimental matrix was 2K*256 complex data points, which after apodization through a 90°-shifted squared sine bell function in both dimensions was transformed to a final matrix of 8K*512 data points.
# [2] = CLEANEX-PM-FHSQC water-amide proton exchange; format: physicochemical; details: 30 µM Aβ42, no IAPP-GI, pH 7.3, 278 K
# Procedure: In a CLEANEX-PM-FHSQC experiment, exposed parts of the backbone gain high signal intensity already at short mixing times due to efficient exchange with water, while for more protected groups the signal intensity only rises at longer mixing times.
# To this end, CLEANEX-PM-FHSQC experiments were recorded on a Bruker Avance 600 MHz spectrometer equipped with a triple-resonance room temperature probe. […] The intensity of peaks as a function of mixing time was fitted to the following equation: [drawing 1] (1) where V0 is the intensity of the peak in a control FHSQC experiment, k is the normalized rate constant related to the forward exchange rate constant between water and NH protons, and R1A and R1B are apparent longitudinal relaxation rates for protein and water [32].
# [3] = test system: IAPP; details: ref [38]; cited from earlier work
# [4] = target: IAPP-GI (Fluos-IAPP-GI) (Homo sapiens) (UniProt P10997); assay: fluorescence titration; details: cited from earlier work
# Sequence of IAPP-GI (Fluos-IAPP-GI) (Homo sapiens) (P10997 32-73): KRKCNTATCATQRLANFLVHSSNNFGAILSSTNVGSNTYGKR
# [5] = target: Aβ40 (Homo sapiens, UniProt P05067); details: Fluos-IAPP-GI (1 nM) titrated with low nano- to submicromolar Aβ40; fluorescence; ref [18]; read-out: app. Kd, IAPP-GI-Aβ40 interaction; cited from earlier work
# Sequence of Aβ40 (P05067 672-711 limits assumed): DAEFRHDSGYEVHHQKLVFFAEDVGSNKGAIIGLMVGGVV
# [6] = test system: Aβ and α-synuclein; details: ref [41]; cited from earlier work
# Source text: In agreement with their intrinsic aggregation propensities, the agg ...
# [7] = cited from earlier work
# Source text: Therefore, we needed to find an experimental condition under which these two peptides predominantly populate a monomeric state.
# Sequence of Amyloid beta 40 1-40 (P05067 1-40): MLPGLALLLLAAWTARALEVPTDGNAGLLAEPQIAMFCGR
compound,measurement,setting,value
Aβ42: amyloid-beta peptide; 15N-uniformly labeled Aβ1-42 purchased from rPeptide,histidine side-chain peak pattern of pure Aβ42,[1],very similar to that of Aβ40 with IAPP-GI
same,water-amide proton exchange rates of Aβ42 compared with Aβ40,[2],the exchange rates are reduced in regions (Figure 9) that are also affected upon addition of IAPP-GI to Aβ40
N-terminal part (residues 1–28): N-terminal part of Aβ (residues 1–28),affinity of N-terminal part of Aβ for IAPP,[3],low µM affinity
Amyloid beta 40 1-40 (from UniProt P05067),Kd,[4],41.2 nM
Fluos-IAPP-GI: N-terminal fluorescein labeled IAPP-GI (fluorescein-KCNTATCATQRLANFLVHSSNNF[Sar]A[NMeI]LSSTNVGSNTY; ends and bridges not checked),Kd,[5],50 nM
O=C(O[C@@H]1Cc2c(O)cc(O)cc2O[C@@H]1c1cc(O)c(O)c(O)c1)c1cc(O)c(O)c(O)c1 [(-)-epigallocatechin gallate],redirection of Aβ and α-synuclein into off-pathway oligomers,[6],redirection of Aβ and α-synuclein into off-pathway oligomers
"human IAPP: Islet Amyloid Polypeptide, hydrophobic strongly amyloidogenic peptide produced in the pancreatic islet cells (KCNTATCATQRLANFLVHSSNNFGAILSSTNVGSNTY; not fully specified (C-terminus, bridges); cysteine pairing not given here; UniProt P10997 34-70, looked up)",assembly state of human IAPP,"[7]; neutral pH, 4°C, concentration as high as 255 µM (1 mg/mL), analytical ultracentrifugation and diffusion NMR, ref [24], [25]",kinetically stable state consisting of monomers and high molecular weight oligomers
same,self-association of human IAPP,"[7]; temperatures above 20°C, ref [24]-[27]",rapidly drives monomeric IAPP molecules toward oligo- and multimerization
